Patent publication US20200199241A1 (Chugai, published 2020)
Numbering of substitutions follows the chain as printed. Numbers in names are those of the source.

B1: IgG1-F21 (antibody)
heavy: QVQLQESGPGLVKPSETLSLTCAVSGHSISHDHAWSWVRQPPGEGLEWIGFISYSGITNYNPSLQGRVTISRDNSKNTLYLQMNSLRAEDTAVYYCARSLARTTAMDYWGEGTLVTVSSASTKGPSVFPLAPSSKSTSGGTAALGCLVKDYFPEPVTVSWNSGALTSGVHTFPAVLQSSGLYSLSSVVTVPSSSLGTQTYICNVNHKPSNTKVDKKVEPKSCDKTHTCPPCPAPELLGGPSVFLFPPKPKDTLYISRTPEVTCVVVDVSHEDPEVKFNWYVDGVEVHNAKTKPREEQYNSTYRVVSVLTPLHQDWLNGKEYKCKVSNKALPAPIEKTISKAKGQPREPQVYTLPPSRDELTKNQVSLTCLVKGFYPSDIAVEWESNGQPENNYKTTPPVLDSDGSFFLYSKLTVDKSRWQQGNVFSCSVMHEALHYHYTQKSLSLSP
light: not shown
notes: copies: 2 + 2
B2: IgG1-F38 (antibody)
heavy: B1 heavy with S256T, P310V, Y436W
light: not shown
notes: EU numbering; copies: 2 + 2
B3: IgG1-F39 (antibody)
heavy: B1 heavy with S256T, P310V
light: not shown
notes: EU numbering; copies: 2 + 2
B4: IgG1-F42 (antibody)
heavy: B1 heavy with S256T, T258E, P310V, Y436A
light: not shown
notes: EU numbering; copies: 2 + 2
B5: IgG1-F72 (antibody)
heavy: B1 heavy with S256T, T258E, P310V, M430L
light: not shown
notes: EU numbering; copies: 2 + 2
B6: IgG1-F73 (antibody)
heavy: B1 heavy with P310V, M430L, Y436W
light: not shown
notes: EU numbering; copies: 2 + 2
B7: IgG1-F74 (antibody)
heavy: B1 heavy with P310V, M430L
light: not shown
notes: EU numbering; copies: 2 + 2
B8: IgG1-F75 (antibody)
heavy: B1 heavy with P310V, M430L, Y436A
light: not shown
notes: EU numbering; copies: 2 + 2
B9: IgG1-F76 (antibody)
heavy: B1 heavy with S256T, T258E, P310V, M430L, Y436A
light: not shown
notes: EU numbering; copies: 2 + 2
B10: IgG1-F77 (antibody)
heavy: B1 heavy with Y254M, T258E, P310V, M430L
light: not shown
notes: EU numbering; copies: 2 + 2
B11: IgG1-F78 (antibody)
heavy: B1 heavy with Y254M, S256T, P310V, M430L, Y436W
light: not shown
notes: EU numbering; copies: 2 + 2
B12: IgG1-F80 (antibody)
heavy: B1 heavy with T258Q, P310V, Y436A
light: not shown
notes: EU numbering; copies: 2 + 2
B13: IgG1-F81 (antibody)
heavy: B1 heavy with T258E, P310V, Y436A
light: not shown
notes: EU numbering; copies: 2 + 2
B14: IgG1-F84 (antibody)
heavy: B1 heavy with Y254W, T258Q, P310V, Y436W
light: not shown
notes: EU numbering; copies: 2 + 2
B15: IgG1-F85 (antibody)
heavy: B1 heavy with Y254W, T258Q, P310V
light: not shown
notes: EU numbering; copies: 2 + 2
B16: IgG1-F86 (antibody)
heavy: B1 heavy with Y254M, S256T, T258Q, P310V, Y436W
light: not shown
notes: EU numbering; copies: 2 + 2
B17: IgG1-F87 (antibody)
heavy: B1 heavy with Y254M, S256T, T258Q, P310V
light: not shown
notes: EU numbering; copies: 2 + 2
B18: IgG1-F88 (antibody)
heavy: B1 heavy with S256T, T258Q, P310V, Y436W
light: not shown
notes: EU numbering; copies: 2 + 2
B19: IgG1-F89 (antibody)
heavy: B1 heavy with S256T, T258Q, P310V
light: not shown
notes: EU numbering; copies: 2 + 2
B20: IgG1-F90 (antibody)
heavy: B1 heavy with T258E, Y436W
light: not shown
notes: EU numbering; copies: 2 + 2
B21: IgG1-F91 (antibody)
heavy: B1 heavy with M430L
light: not shown
notes: EU numbering; copies: 2 + 2
B22: IgG1-F92 (antibody)
heavy: B1 heavy with S256T, T258E, M430L, Y436W
light: not shown
notes: EU numbering; copies: 2 + 2
B23: IgG1-F93 (antibody)
heavy: B1 heavy with Y254W, P310V, M430L, Y436W
light: not shown
notes: copies: 2 + 2
B24: IgG1-F94 (antibody)
heavy: B1 heavy with Y254M, P259L, P310V, M430L
light: not shown
notes: copies: 2 + 2
B25: IgG1-F95 (antibody)
heavy: B1 heavy with S256T, T258E, P310V, M430L, Y436F
light: not shown
notes: EU numbering; copies: 2 + 2
B26: IgG1-F99 (antibody)
heavy: B1 heavy with T258E, P310V, Y436H
light: not shown
notes: EU numbering; copies: 2 + 2
B27: IgG1-F101 (antibody)
heavy: B1 heavy with Y254W, T258Q, P259L, P310V
light: not shown
notes: EU numbering; copies: 2 + 2
B28: IgG1-F103 (antibody)
heavy: B1 heavy with P240A
light: not shown
notes: EU numbering; copies: 2 + 2
B29: IgG1-F104 (antibody)
heavy: B1 heavy with D267A
light: not shown
notes: EU numbering; copies: 2 + 2
B30: IgG1-F105 (antibody)
heavy: B1 heavy with T309A
light: not shown
notes: EU numbering; copies: 2 + 2
B31: IgG1-F106 (antibody)
heavy: B1 heavy with V305A
light: not shown
notes: EU numbering; copies: 2 + 2
B32: IgG1-F107 (antibody)
heavy: B1 heavy with D378A
light: not shown
notes: EU numbering; copies: 2 + 2
B33: IgG1-F108 (antibody)
heavy: B1 heavy with V307A
light: not shown
notes: EU numbering; copies: 2 + 2
B34: IgG1-F109 (antibody)
heavy: B1 heavy with Q313A
light: not shown
notes: EU numbering; 'M4252Y' read as M252Y; copies: 2 + 2
B35: IgG1-F111 (antibody)
heavy: B1 heavy with K319A
light: not shown
notes: EU numbering; copies: 2 + 2
B36: IgG1-F112 (antibody)
heavy: B1 heavy with E382A
light: not shown
notes: EU numbering; copies: 2 + 2
B37: IgG1-F113 (antibody)
heavy: B1 heavy with E384A
light: not shown
notes: EU numbering; copies: 2 + 2
B38: IgG1-F114 (antibody)
heavy: B1 heavy with S426A
light: not shown
notes: EU numbering; copies: 2 + 2
B39: IgG1-F120 (antibody)
heavy: B1 heavy with Y254M, P259L, M430L
light: not shown
notes: EU numbering; copies: 2 + 2
B40: IgG1-F121 (antibody)
heavy: B1 heavy with T258E, M430L, Y436W
light: not shown
notes: EU numbering; copies: 2 + 2
B41: IgG1-F122 (antibody)
heavy: B1 heavy with T258E, P310V, M430L, Y436W
light: not shown
notes: EU numbering; copies: 2 + 2
B42: IgG1-F123 (antibody)
heavy: B1 heavy with T258E
light: not shown
notes: EU numbering; copies: 2 + 2
B43: IgG1-F124 (antibody)
heavy: B1 heavy with T258E, P310V, M430L
light: not shown
notes: EU numbering; copies: 2 + 2
B44: IgG1-F125 (antibody)
heavy: B1 heavy with S256T, T258E, M430L
light: not shown
notes: EU numbering; copies: 2 + 2
B45: IgG1-F128 (antibody)
heavy: B1 heavy with Y254M, P259L, P310V, M430L, Y436W
light: not shown
notes: EU numbering; copies: 2 + 2
B46: IgG1-F129 (antibody)
heavy: B1 heavy with Y254M, P259A, P310V, M430L
light: not shown
notes: EU numbering; copies: 2 + 2
B47: IgG1-F130 (antibody)
heavy: B1 heavy with P310M
light: not shown
notes: EU numbering; label printed 'F130' between F149 and F152 (perhaps F150); copies: 2 + 2
B48: IgG1-F131 (antibody)
heavy: B1 heavy with Y254M, P259G, P310V, M430L
light: not shown
notes: EU numbering; copies: 2 + 2
B49: IgG1-F132 (antibody)
heavy: B1 heavy with Y254M, P259I, P310V, M430L
light: not shown
notes: EU numbering; copies: 2 + 2
B50: IgG1-F133 (antibody)
heavy: B1 heavy with Y254M, P259M, P310V, M430L
light: not shown
notes: EU numbering; copies: 2 + 2
B51: IgG1-F134 (antibody)
heavy: B1 heavy with Y254M, P259N, P310V, M430L
light: not shown
notes: EU numbering; copies: 2 + 2
B52: IgG1-F135 (antibody)
heavy: B1 heavy with Y254M, P259S, P310V, M430L
light: not shown
notes: EU numbering; copies: 2 + 2
B53: IgG1-F136 (antibody)
heavy: B1 heavy with Y254M, P259T, P310V, M430L
light: not shown
notes: EU numbering; copies: 2 + 2
B54: IgG1-F137 (antibody)
heavy: B1 heavy with Y254M, P259V, P310V, M430L
light: not shown
notes: EU numbering; copies: 2 + 2
B55: IgG1-F139 (antibody)
heavy: B1 heavy with Y254W, Y436W
light: not shown
notes: EU numbering; copies: 2 + 2
B56: IgG1-F140 (antibody)
heavy: B1 heavy with S241K
light: not shown
notes: copies: 2 + 2
B57: IgG1-F141 (antibody)
heavy: B1 heavy with S300G
light: not shown
notes: EU numbering; copies: 2 + 2
B58: IgG1-F142 (antibody)
heavy: B1 heavy with D272F
light: not shown
notes: EU numbering; copies: 2 + 2
B59: IgG1-F143 (antibody)
heavy: B1 heavy with P310A
light: not shown
notes: EU numbering; copies: 2 + 2
B60: IgG1-F145 (antibody)
heavy: B1 heavy with P310F
light: not shown
notes: EU numbering; copies: 2 + 2

What follows are binders tested against T1, human FcRn (soluble human FcRn complexed with β2-microglobulin) (human, UniProt P61769 21-119, limits assumed) (assay: SPR, pH 7.0;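 note: antibodies captured on a Protein L sensor chip with human FcRn injected as analyte, KD calculated from fitted association and dissociation rate constants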).
T1 construct: also called hFcRn
T1 sequence (chain, as listed by the source limits assumed, chain 1 of 2): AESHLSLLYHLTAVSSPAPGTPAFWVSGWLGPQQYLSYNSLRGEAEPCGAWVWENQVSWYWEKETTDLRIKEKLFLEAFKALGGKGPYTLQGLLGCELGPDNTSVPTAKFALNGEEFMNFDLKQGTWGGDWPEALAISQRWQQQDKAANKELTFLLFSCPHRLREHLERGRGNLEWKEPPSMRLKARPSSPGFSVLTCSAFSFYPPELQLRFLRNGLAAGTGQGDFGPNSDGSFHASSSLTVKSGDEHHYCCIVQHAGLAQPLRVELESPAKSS
T1 sequence (P61769 21-119 limits assumed, chain 2 of 2): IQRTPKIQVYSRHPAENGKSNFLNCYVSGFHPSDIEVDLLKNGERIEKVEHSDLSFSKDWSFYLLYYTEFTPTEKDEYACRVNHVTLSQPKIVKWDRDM

Binder	Kd [nM]
B1	30
B2	100
B3	300
B4	1000
B5	200
B6	170
B7	460
B8	1400
B9	1000
B10	990
B11	780
B12	2700
B13	1600
B14	280
B15	550
B16	1500
B17	4300
B18	190
B19	360
B20	19

Binder	Kd [nM]
B21	48
B22	11
B23	740
B24	370
B25	260
B26	620
B27	110
B28	44
B29	37
B30	75
B31	37
B32	34
B33	41
B34	32
B35	32
B36	64
B37	32
B38	38
B39	63
B40	15

Binder	Kd [nM]
B41	120
B42	30
B43	290
B44	24
B45	170
B46	220
B47	200
B48	3000
B49	210
B50	410
B51	270
B52	750
B53	380
B54	460
B55	15
B56	36
B57	35
B58	37
B59	200
B60	53
